Experimental findings from patent US20080160035A1 (Regeneron, published 2008) are described below.

Experiment [1] has as its target T1, dimeric hIL-4R-hFc (human, UniProt P24394 26-232).
T1 construct: also called hIL-4R-Fc; not shown: human Fc (hFc)
T1 sequence: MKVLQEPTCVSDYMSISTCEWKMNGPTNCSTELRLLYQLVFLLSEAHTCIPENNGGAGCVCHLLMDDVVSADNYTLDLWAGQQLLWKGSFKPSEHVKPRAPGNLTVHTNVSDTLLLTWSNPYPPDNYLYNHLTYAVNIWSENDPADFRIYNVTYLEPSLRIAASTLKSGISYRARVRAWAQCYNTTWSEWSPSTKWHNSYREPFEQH
As to the kind of experiment: SPR (BIAcore 2000); antibody captured, dimeric hIL-4R-hFc injected. How it is done:
(§1) Binding affinity (KD) of selected antibodies with respect to hIL-4R was determined using a real-time biosensor surface plasmon resonance assay (BIAcore™ 2000). Briefly, antibody was captured on a goat anti-mouse (GAM) IgG polyclonal antibody surface created through direct chemical coupling of the GAM IgG to a BIAcore™ chip to form a captured antibody surface. […] Binding of antigen to antibody and dissociation of the bound complex, were monitored in real time. Equilibrium dissociation constants (KD) and dissociation rate constants were ascertained by performing kinetic analysis using BIA evaluation software. BIA evaluation software was also used to calculate the half-life of antigen/antibody complex dissociation (T_{1/2}). […] The binding affinity of anti-hIL-4R antibodies to either mouse or monkey (Macaca fascicularis) IL-4R was also tested.
For orientation: In SPR one partner is held on a chip, and binding of the other changes the refractive index at the surface.

The target in experiment [2] is T2, hIL-4R on cells (STAT6-transfected HEK293, TF1, TF1/A12) (human, UniProt P24394 26-825).
T2 sequence (looked up): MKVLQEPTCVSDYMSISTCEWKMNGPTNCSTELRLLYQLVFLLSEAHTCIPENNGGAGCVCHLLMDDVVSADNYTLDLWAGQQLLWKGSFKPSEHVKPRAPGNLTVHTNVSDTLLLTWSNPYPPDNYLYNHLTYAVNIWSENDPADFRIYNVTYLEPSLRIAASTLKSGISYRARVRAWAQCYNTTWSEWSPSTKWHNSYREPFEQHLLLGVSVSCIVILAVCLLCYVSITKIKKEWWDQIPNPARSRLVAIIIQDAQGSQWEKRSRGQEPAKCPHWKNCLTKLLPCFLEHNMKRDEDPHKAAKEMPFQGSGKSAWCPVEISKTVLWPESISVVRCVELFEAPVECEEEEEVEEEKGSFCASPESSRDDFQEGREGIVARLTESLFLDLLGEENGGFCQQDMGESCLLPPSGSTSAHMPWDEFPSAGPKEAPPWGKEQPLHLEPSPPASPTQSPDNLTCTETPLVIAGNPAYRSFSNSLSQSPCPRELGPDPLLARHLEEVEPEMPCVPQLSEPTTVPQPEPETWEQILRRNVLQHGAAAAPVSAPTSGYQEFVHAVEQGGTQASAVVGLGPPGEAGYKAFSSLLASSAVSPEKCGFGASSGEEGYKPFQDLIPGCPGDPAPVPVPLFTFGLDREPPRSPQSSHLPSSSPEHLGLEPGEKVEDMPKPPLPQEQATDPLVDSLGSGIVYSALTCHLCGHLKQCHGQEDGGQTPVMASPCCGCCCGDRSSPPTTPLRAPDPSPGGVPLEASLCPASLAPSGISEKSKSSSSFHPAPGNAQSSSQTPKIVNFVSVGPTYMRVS
Kind of experiment: cell-based or functional assay.

Experiment [3] has as its target T1, dimeric hIL-4R-hFc. Kind of experiment: SPR; reduction of hIL-4 (50 nM) binding to captured hIL-4R-hFc after antibody; competitor hIL-4. The source says: Purified hIL-4R-hFc molecules were captured by goat anti-human IgG polyclonal antibody immobilized on CM-5 to a density of 260 RU, to prepare a receptor-coated surface.
The target in experiment [4] is T1, dimeric hIL-4R-hFc. Kind of experiment: ELISA; antibody titrated against 25 pM hIL-4R-Fc, free receptor caught on hIL-4 plate. How it is done:
Concentration of free hIL-4R-Fc (no antibody bound) was determined using a hIL-4R-specific sandwich ELISA. […] After a one-hour incubation at room temperature, the detection plate was washed and plate-bound hIL-4R-hFc was detected using HRP conjugated goat anti-hFc polyclonal antibodies and developed using colorimetric substrates such as BD OptEIA™ (BD Biosciences Pharmingen, San Diego, Calif.). After the reaction was stopped with 1 M phosphoric or sulfuric acid, absorbances at 450 nm were recorded and the data were analyzed using GraphPad™ Prism software.

Experiment [5] addresses T3, monomeric hIL-4R (R&D Systems) (human, UniProt P24394 26-231).
T3 construct: Bought (R&D Systems); also called hIL-4R monomer
T3 sequence: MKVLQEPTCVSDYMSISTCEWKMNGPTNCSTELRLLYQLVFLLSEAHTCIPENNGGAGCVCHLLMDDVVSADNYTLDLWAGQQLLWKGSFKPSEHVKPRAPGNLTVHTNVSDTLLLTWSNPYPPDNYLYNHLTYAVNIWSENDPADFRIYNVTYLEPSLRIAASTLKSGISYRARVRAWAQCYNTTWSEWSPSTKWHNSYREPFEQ
Kind of experiment: SPR (BIAcore 2000); antibody captured, monomeric hIL-4R injected. How it is done:
as §1

The target in another experiment is T4, mouse IL-4R (mouse, UniProt P16382 26-233, limits assumed).
T4 sequence (looked up): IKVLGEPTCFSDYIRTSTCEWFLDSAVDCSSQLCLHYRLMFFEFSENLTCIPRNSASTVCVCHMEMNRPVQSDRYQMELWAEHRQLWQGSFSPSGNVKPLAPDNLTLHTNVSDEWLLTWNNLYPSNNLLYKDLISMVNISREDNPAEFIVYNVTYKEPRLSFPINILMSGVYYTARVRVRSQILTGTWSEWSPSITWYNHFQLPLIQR
As to the kind of experiment: binding affinity test of Example 2 (method not restated).

Experiment [6] concerns the target T2, hIL-4R on cells (STAT6-transfected …). Kind of experiment: cell-based or functional assay. This is another data set of the same source.

As usually defined, the Kd is the equilibrium constant for the complex coming apart. Lower therefore signals higher affinity. In general, IC50 refers to the concentration that inhibits the measured activity by half.

B1: VAB 16G1-1 (antibody, V domains shown)
VH: EVKLAESGGGLVQPGGSLRLSCAASGFTFSSHWMNWVRQAPGKGLEWVANIKQDGSDKYYVDSVKGRFTISRDNAKNSLYLQLNSLIAEDTAVYYCARDRGVRPPRGAFDIWGQGTMVTVSS
VL: DIQMTQSPSSVSASVGDRVTITCRASQGISSWLAWYQQKPGKAPKLLIYAASSFQSGVPSRFSGSGSGTDFTLTISSLQPEDFATYFCQQANSFPLTFGGGTTVEIK
notes: 403/405; 407/409 without saying which was assayed; Apparently tested with mouse constant region (anti-mouse IgG capture/detection)
With B1, in the experiment with dimeric hIL-4R-hFc [1], the affinity, expressed as Kd, was 38 pM and the T1/2 dimeric worked out at 7.3 h. In experiment [2], the “STAT6 Bioassay IC50 (HEK293 STAT6 luciferase, 10 pM hIL-4)” value worked out at 0.14 nM; the “TF1/A12 Bioassay IC50 (proliferation, 20 pM hIL-4)” value (shortened to “TF1/A12 Bioassay IC50”) stood at 0.7 nM; the “TF1 Bioassay IC50 (proliferation, 50 pM hIL-4)” value stood at 0.12 nM. For the same molecule, in the experiment with dimeric hIL-4R-hFc [3], the “% Inhibition (BIAcore)” value is 92%. The same molecule displayed an IC50 in the experiment with dimeric hIL-4R-hFc [4] of 18 pM. Further, in experiment [5], the Kd was 930 pM and the T1/2 monomeric is 0.25 h. The binding result in the experiment with mouse IL-4R was “no binding”. In experiment [6], the “STAT6 Bioassay IC50 (HEK293 STAT6 luciferase, 40 pM hIL-13)” value is 90 pM and the “TF1 Bioassay IC50 (proliferation, 150 pM hIL-13)” value is 0.44 nM.

B2: VAB 5C5-11 (antibody, V domains shown)
VH: QVQLVQSGAEVQKPGASVKVSCKASGYTFTGQYIHWVRQAPGQGLEWMGWINPNSGGTNFAQKFQDRVTMTRDTSIGTVYMELRRLTSDDTAVFYCVREKRGFDIWGQGTMVTVSS
VL: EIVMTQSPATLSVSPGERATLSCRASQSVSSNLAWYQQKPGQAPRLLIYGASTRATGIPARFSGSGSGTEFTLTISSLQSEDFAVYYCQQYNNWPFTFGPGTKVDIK
notes: Apparently tested with mouse constant region (anti-mouse IgG capture/detection)
Turning to B2, in the experiment with dimeric hIL-4R-hFc [1], the Kd came to 27 pM and the T1/2 dimeric came to 7.7 h. Also, in experiment [2], the “STAT6 Bioassay IC50 (HEK293 STAT6 luciferase, 10 pM hIL-4)” value is 0.14 nM; the “TF1/A12 Bioassay IC50” value is 0.37 nM; the “TF1 Bioassay IC50 (proliferation, 50 pM hIL-4)” value was found to be 0.21 nM. Besides, the “% Inhibition (BIAcore)” value with dimeric hIL-4R-hFc [3] stood at 96%. Besides, inhibition with dimeric hIL-4R-hFc [4] was half-maximal at 24 pM (IC50). In experiment [5], this molecule showed a dissociation constant (Kd) of 130 pM and a T1/2 monomeric of 0.783 h. The binding result with mouse IL-4R is “no binding”. Also, in experiment [6], the “STAT6 Bioassay IC50 (HEK293 STAT6 luciferase, 40 pM hIL-13)” value is 60 pM and the “TF1 Bioassay IC50 (proliferation, 150 pM hIL-13)” value turned out to be 0.82 nM.

B3: VAB 16F3-1 (antibody, V domains shown)
VH: QVQLVQSGAEVKKPGASVKVSCKASGYTFNSYGISWVRQAPGQGLEWMGWIRTYNGNTNYAQKLQGRVTMTTDTSTSTAYMELRSLRSDDTAVYYCARDEARIVVAGTTPYYYGMDVWGQGTTVTVSS
VL: DIQMTQSPSSVSASVGDRVTITCRASQDISIWLAWYQQSPGKAPKLLINVASRLQSGVPSRFSGSGSGTDFTLTINSLQPEDFVTYYCQQANSFPITFGQGTRLATK
notes: as for B2
In the case of B3, in the experiment with dimeric hIL-4R-hFc [1], the affinity, expressed as Kd, was 3 pM and the T1/2 dimeric is 41 h. Also, in experiment [2], the “STAT6 Bioassay IC50 (HEK293 STAT6 luciferase, 10 pM hIL-4)” value is 32 pM; the “TF1/A12 Bioassay IC50” value amounted to 67 pM; the “TF1 Bioassay IC50 (proliferation, 50 pM hIL-4)” value came out at 46 pM. For the same molecule, in the experiment with dimeric hIL-4R-hFc [3], the “% Inhibition (BIAcore)” value was 97%. This molecule yielded a half-inhibitory concentration (IC50) with dimeric hIL-4R-hFc [4] of 19 pM. In experiment [5], this molecule showed a Kd of 20 pM and a T1/2 monomeric of 4.23 h. Moreover, the binding result in the experiment with mouse IL-4R is on record as “no binding”. In experiment [6], the “STAT6 Bioassay IC50 (HEK293 STAT6 luciferase, 40 pM hIL-13)” value came out at 18 pM and the “TF1 Bioassay IC50 (proliferation, 150 pM hIL-13)” value came to 79 pM.

B4: VAB 3B4-10 (antibody, V domains shown)
VH: QVHLVQSGAEVKKPGASVKVSCKASGYTFTNYGIGWVRQAPGQGLEWMGWISIYNGNTNYAQRLQGRVTMTTDTSTSTAFMDLRSLKSDDTAVYYCARGSGYNFDHWGQGTLVTVSS
VL: AIQMTQSPSSLSASVGDRVTITCRASQGIRNDLGWYQQIPGKAPKLLIYAASSLQSGVPSRFSGSGSGTDFTLTISNLQPEDFAVYFCLQDNTYPYTFGQGTNLESK
notes: as for B2
Regarding B4, in the experiment with dimeric hIL-4R-hFc [1], the equilibrium dissociation constant (Kd) was 53 pM and the T1/2 dimeric was determined as 20.4 h. In experiment [2], the “STAT6 Bioassay IC50 (HEK293 STAT6 luciferase, 10 pM hIL-4)” value was greater than 10 nM and the “TF1/A12 Bioassay IC50” value was greater than 50 nM. Also, in the experiment with dimeric hIL-4R-hFc [3], the “% Inhibition (BIAcore)” value came out at 72%. The IC50 with dimeric hIL-4R-hFc [4] was found to be 322 pM. In experiment [5], this molecule returned a Kd of 590 pM and a T1/2 monomeric of 1.7 h. Further, the binding result in the experiment with mouse IL-4R is reported as “no binding”. The “STAT6 Bioassay IC50 (HEK293 STAT6 luciferase, 40 pM hIL-13)” value in experiment [6] was 8.3 nM.
